Source: publication PMC3917153 (Biochemistry, 2013)

Molecular target: T1, GB-yeIF5-B6 (S. cerevisiae, UniProt P38431 241-405)
T1 sequence (looked up): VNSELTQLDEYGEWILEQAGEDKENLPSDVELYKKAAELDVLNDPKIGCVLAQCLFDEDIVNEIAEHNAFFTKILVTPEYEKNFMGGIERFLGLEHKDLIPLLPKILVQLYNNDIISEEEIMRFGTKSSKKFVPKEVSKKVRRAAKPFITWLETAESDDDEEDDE
Test: pull-down

binding result: binds
B1: GST-yeIF1A ΔC (lacking aa. 108-153) (domain or fragment, S. cerevisiae, UniProt P38912 1-107, looked up)
chain: MGKKNTKGGKKGRRGKNDSDGPKRELIYKEEGQEYAQITKMLGNGRVEASCFDGNKRMAHIRGKLRKKVWMGQGDIILVSLRDFQDDQCDVVHKYNLDEARTLKNQG
